Test [1] has as its system colon cancer cell line (CT26) tumor. Briefly: Tumor-infiltrating lymphocytes and macrophages in CT26 cancer tissue after combined use. Type of test: in vivo, BALB/c mice. An excerpt: In order to identify effects of the anti-CD300c monoclonal antibody on tumor-infiltrating lymphocytes (TIL) in a tumor microenvironment (TME), on day 25 of an experiment conducted by the same method as in Experimental Example 7.1, the mice were euthanized, and injected intravascularly with 1% paraformaldehyde (PFA) to perform perfusion, and then the cancer tissue was obtained. The obtained cancer tissue was fixed using 1% PFA, and sequentially dehydrated using 10%, 20%, and 30% sucrose solutions. The dehydrated cancer tissue was frozen in OCT compound (optimal cutting temperature compound), and then the cancer tissue was sectioned to a thickness of 50 μm using a cryotome. The tissue was incubated at 37° C. for 1 hour in a mixed solution of collagenase D (20 mg/mL) and DNase I (2 mg/mL). Thereafter, the resultant product was filtered through a 70 μm cell strainer, followed by the lysis of red blood cells, and then again filtered through a nylon mesh for making single cells. To suppress non-specific reactions in the single cell suspension, the cells were incubated with a CD16/32 antibody (Invitrogen) for 1 hour, and then cell viability was identified, and CD8+ T cells and CD31+ cancer blood vessel cells, which are tumor-infiltrating lymphocyte markers, were stained.
In order to identify whether the anti-CD300c monoclonal antibody increases M1 macrophages in the cancer tissue of mouse models, the cancer tissue sections prepared by the same method as in Experimental Example 7.2 were stained with antibodies to the M1 macrophage marker iNOS and the M2 macrophage marker CD206, and analyzed by FACS.
In order to identify whether the anti-CD300c monoclonal antibody CL7 promotes CD8+ T cell immunity in mouse tumor models, on day 25 of the experiment conducted by the same method as in Experimental Example 7.1, the mice were euthanized, and injected intravascularly with 1% paraformaldehyde (PFA) to perform perfusion, and then the cancer tissue was obtained. The obtained cancer tissue was fixed using 1% PFA, and sequentially dehydrated using 10%, 20%, and 30% sucrose solutions. […]

The test system is the same in test [2]. The experiment in a line: IFN-g ELISPOT of spleen in CT26 syngeneic mouse tumor model. Type of test: in vivo, BALB/c mice. As to conditions: 25 mg/kg i.p., day 25. As for the experimental part: In order to identify effects of the anti-CD300c monoclonal antibody CL7 on CD8+ T cells under in vivo conditions, syngeneic mouse tumor models were prepared as in Experimental Example 3.2 and administered the anti-CD300c monoclonal antibody at the same concentration. On day 25 after injection, the mice were sacrificed, and spleen were collected from each of six mice in the CL7 25 mg/kg administration group showing a highest antitumor effect compared with the control group. Subsequently, the results were identified by measuring IFN-g through ELISPOT assay. Specifically, the Mouse IFN-g ELISpot kit was purchased from R&D Systems (#EL485), and IFN-g was measured according to the protocol for the kit.

Test [3] deals with MDA-MB-231 (human breast cancer cell line). Briefly: MDA-MB-231 cancer cell growth inhibition (CCK-8). Type of test: cell-based. As to conditions: 10 μg/mL each, 5 days. The text has this:
(§1) In order to identify cancer cell growth inhibitory effects by combined administration of the anti-CD300c monoclonal antibody CL7 and an immunotherapeutic agent, the cancer cell growth inhibitory effects were compared using A549 (human lung cancer cell line) and MDA-MB-231 (human breast cancer cell line). Specifically, the cells were dispensed into a 96-well plate at 2×10^4 cells (A549) or 3×10^4 cells (MDA-MB-231) under 0% fetal bovine serum (FBS) conditions, and at 6×10^3 cells (A549) or 1×10^4 cells (MDA-MB-231) under 0.1% fetal bovine serum conditions. Subsequently, the cells were treated with the anti-CD300c monoclonal antibody and Imfinzi at 10 μg/mL alone or in combination, followed by incubation for 5 days. For a control group, the cells were treated with the same amount of phosphate buffer solution (PBS). Then, the cells were treated with CCK-8 (DOJINDO), and the absorbance was measured at OD 450 nm. The results are shown in FIG. 33 (A549) and FIG. 34 (MDA-MB-231).

Test [4] deals with A549 (human lung cancer cell line). Briefly: A549 cancer cell growth inhibition (CCK-8), CL7 and Imfinzi. Type of test: cell-based. Conditions: A549, 0% FBS, 10 μg/mL each, 5 days.
Description: as §1

The test system of a further test is B16F10 melanoma cells. The experiment in a line: In vivo cancer growth inhibition, B16F10 melanoma model. Conditions: CL7 25 mg/kg, α-PD-1 10 mg/kg, α-CTLA4 4 mg/kg i.p. twice a week, 4 times; 20 days. Details: species or system C57BL/6 mice. As for the experimental part:
In order to identify whether the anti-CD300c monoclonal antibody CL7 is effective in other carcinomas in addition to a CT26 colon cancer mouse model, an additional experiment was conducted with melanoma mouse models. B16F10 melanoma cells at 7×10^5 cells were transplanted by subcutaneous injection into 8-week-old male C57BL/6 mice to prepare syngeneic mouse tumor models. Animal breeding and experiments were all conducted in a SPF facility. On day 8 after transplantation of the melanoma cell line, the mice with a tumor size of 50 mm^3 to 100 mm^3 were intraperitoneally injected with 25 mg/kg of CL7, 10 mg/kg of α-PD-1, and 4 mg/kg of α-CTLA4. More specifically, the mice were injected, twice a week for 2 weeks (over a total of 4 times), with each of the anti-CD300c monoclonal antibody, the anti-PD-1 antibody, the anti-CD300c monoclonal antibody+the anti-PD-1 antibody (Combo), and the anti-CD300c monoclonal antibody+the anti-PD-1 antibody+the anti-CTLA-4 antibody (Triple), and for a control group, the mice were injected with the same amount of phosphate buffered saline (PBS). The cancer size was measured for 20 days.

The subject of test [5] is colon cancer cell line (CT26) tumor. The experiment in a line: In vivo cancer growth inhibition, CT26 model, CL7 and anti-PD-1. Details: species or system BALB/c mice. Conditions: CL7 10 mg/kg, anti-PD-1 10 mg/kg i.p. D12, D15, D19, D22; 25 days. On the procedure: In order to identify anticancer effects of the anti-CD300c monoclonal antibody CL7 under in vivo conditions, a colon cancer cell line (CT26) at 2×10^5 cells was transplanted by subcutaneous injection into 8-week-old BALB/c mice to prepare syngeneic mouse tumor models. Animal breeding and experiments were all conducted in a SPF facility. On day 12 (D12) after transplantation of the colon cancer cell line, the mice with a tumor size of 50 mm^3 to 100 mm^3 were administered the anti-CD300c monoclonal antibody and an anti-PD-1 antibody purchased from BioXcell alone or in combination, and for a control group, the mice were administered the same amount of phosphate buffered saline (PBS). Specifically, the mice were intraperitoneally injected with the respective antibodies (CL7: 10 mg/kg; and anti-PD-1 antibody: 10 mg/kg) alone or in combination, twice a week for two weeks (a total of 4 times on D12, D15, D19, and D22). The tumor volume was measured for 25 days.

The mark [6] stands for this setting: CT26 cancer tissue, day 25, FACS.

B1: CL7: anti-CD300c monoclonal antibody, VH3VL1 phage library, VH SEQ ID 327, VL SEQ ID 328 (antibody, V domains shown)
VH: EVQLLESGGGLVQPGGSLRLSCAASGFTFSRYAMSWVRQAPGKGLEWVSAISGSGGSTYYADSVKGRFTISRDNSKNTLYLQMNSLRAEDTAVYYCARSSQGIFDIWGQGTLVTVSS
VL: QSVLTQPPSASGTPGQRVTISCSGNNIGTRRVHWYQQLPDTAPKLLIYSKNNRPSGVPDRFSGSKSGTSASLAISGLRSEDEADYYCAAWDDSLSGPVFGGGTKLTVL
modifications: CL7 Heavy Chain Variable Region; CL7 Light Chain Variable Region
Take B1: in test [1] (setting [6]), the “M1 macrophages (iNOS) in cancer tissue” value is reported as “remarkably increased” and the “M2 macrophages (CD206) in cancer tissue” value was “hardly observed”. Also, in test [1] (Experimental Example 7.4, CT26 cancer tissue sections, day 25), the “CD8+ T cells in cancer tissue” value is “remarkably increased”. Also, in test [2], the “expression of IFN-g (ELISPOT)” value is “increased”. The “cancer cell growth inhibitory effect compared with control group” value in test [3] (MDA-MB-231, 0.1% FBS (second statement)) is listed as 19%. Moreover, the “cancer cell growth inhibitory effect compared with control group” value in test [3] (MDA-MB-231, 0.1% FBS as printed (first statement)) was found to be 19%. The “cell growth inhibitory effect compared with control group” value in test [4] was 17%. Further, the “cancer growth (cancer size)” value with B16F10 melanoma cells was “inhibited”. Further, in test [5], the “cancer growth (tumor volume)” value is given as “inhibited”.

Values taken from patent US20240254220A1, “COMBINED THERAPY USING ANTI-CD300C ANTIBODY” (CentricsBio, Inc., priority 2021, published 2024).
